Experimental data from US20180362604A1.

How the values were obtained:
Activin A = Activin A (UniProt P08476); assay: cell-based or functional assay
Myostatin [1] = target: Myostatin (UniProt O14793); assay: cell-based or functional assay
FcRn receptor [2] = assay: SPR
Myostatin [3] = target: Myostatin (UniProt O14793); assay: SPR
FcRn receptor [4] = assay: FcRn binding, 'standard methods'
Myostatin [5] = target: Myostatin (UniProt O14793); assay: SPR (BIAcore), anti-human Fc capture, myostatin as analyte

Chain of Myostatin (O14793 267-375 limits assumed): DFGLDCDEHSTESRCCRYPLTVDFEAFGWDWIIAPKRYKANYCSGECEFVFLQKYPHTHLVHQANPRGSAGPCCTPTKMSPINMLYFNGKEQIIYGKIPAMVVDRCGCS
Chain of Activin A (P08476 311-426): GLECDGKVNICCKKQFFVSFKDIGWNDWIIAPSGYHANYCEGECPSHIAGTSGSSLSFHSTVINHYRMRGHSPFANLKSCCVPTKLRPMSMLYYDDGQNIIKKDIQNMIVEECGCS

Row | Activin A IC50, cell-based assay for SMAD pathway (A204 luciferase reporter) (Activin A) | Myostatin IC50, cell-based assay for SMAD pathway (A204 luciferase reporter) (Myostatin [1]) | Kd (FcRn receptor [2]) | Kd (Myostatin [3]) | Kd (FcRn receptor [4]) | Kd (Myostatin [5]) | Substance
1 | 1 nM | 0.4 nM | – | – | – | – | FS315K(81,82,84)E-hFcLALA (Fc fusion)
2 | 0.6 nM | 0.5 nM | – | – | – | – | FS315R78E/K(82,84)E-hFcLALA (Fc fusion)
3 | – | 0.4 nM | 48 nM | 0.0174 nM | 372 nM | – | FS315ΔHBS-hFcLALA (Fc fusion)
4 | – | – | – | – | 36.7 nM | 0.0033 nM | monoFS315ΔHBS-hFcLALA (Fc fusion)
